Positions count from the first letter of the chain named. Numbers in names are those of the source. No end group written: not given here.
What was measured:
human IGFBP-1 = biological target: T1, human IGFBP-1 (human, UniProt P08833 26-259); test: competitive phage ELISA
T1 sequence (looked up): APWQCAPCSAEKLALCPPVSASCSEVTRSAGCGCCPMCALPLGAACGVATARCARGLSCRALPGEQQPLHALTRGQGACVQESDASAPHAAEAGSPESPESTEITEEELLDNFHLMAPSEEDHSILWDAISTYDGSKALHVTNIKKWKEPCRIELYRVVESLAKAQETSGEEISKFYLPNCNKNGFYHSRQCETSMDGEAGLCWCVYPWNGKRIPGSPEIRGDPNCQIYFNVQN
Description: (§1) E. coli cells (XL1-Blue, Stratagene) freshly transformed with phagemid vector were grown overnight in 5 mL 2YT medium (Sambrook et al., supra) in the presence of M13-VCS helper phage (Stratagene). Phage particles were harvested and resuspended in PBS buffer as described in Lowman, H. B., “Phage Display of Peptide Libraries on Protein Scaffolds,” in Cabilly, S. (ed.), Combinatorial Peptide Library Protocols (Humana Press Inc.: Totowa, N.J., 1998), pp. 249-264. Then phage concentrations were normalized to yield a maximal ELISA signal of 0.2-0.4 for each mutant (Lowman, in Cabilly, S. (ed.), supra). Threefold serial dilutions of soluble competitor were prepared on non-absorbent microtiter plates (Nunc, F, 96 wells) with binding buffer (0.5% TWEEN 20%/PBS) containing phage at the previously determined concentrations. […] After blocking, the plates containing immobilized target were washed with 0.05% TWEEN™/PBS buffer and subsequently incubated with 80 μl/well of the premixed phage-competitor solutions for 1 hour at room temperature. […] IC₅₀ values were determined by fitting the binding data to a generic saturation curve (Lowman, in Cabilly, S. (ed.), supra). At least two individual clones of each IGF-1 mutant were assayed. Numbers in Table XIII represent mean±standard deviation of individually assessed IC₅₀ values.

[1] = biological target: T2, recombinant human IGFBP-3 (human, UniProt P17936 28-291); test: competitive phage ELISA
T2 sequence (P17936 28-291 limits assumed): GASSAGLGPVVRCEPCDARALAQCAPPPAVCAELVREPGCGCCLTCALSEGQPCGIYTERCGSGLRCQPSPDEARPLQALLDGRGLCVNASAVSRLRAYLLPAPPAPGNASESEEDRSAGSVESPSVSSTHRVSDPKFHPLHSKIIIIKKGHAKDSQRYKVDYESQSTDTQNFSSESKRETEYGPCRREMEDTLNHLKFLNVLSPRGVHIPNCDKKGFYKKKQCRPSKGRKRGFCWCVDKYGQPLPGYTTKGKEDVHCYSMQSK
Description: as §1

[2] = biological target: T2, recombinant human IGFBP-3; test: phage ELISA (IGF-blocking phage assay): g8 peptide-phage on an IGFBP-3-coated plate, without and with IGF-1; OD492
Description: The plates were then washed ten times, as above, and a solution of rabbit anti-phage antibody mixed with a goat-anti-rabbit conjugate of horseradish peroxidase was added. After an incubation of 1 hour at room temperature, the plates were developed with a chromogenic substrate, o-phenylenediamine (Sigma). The reaction was stopped with addition of ½ volume of 2.5 M H₂SO₄. Optical density at 490 nm was measured on a spectrophotometric plate reader.
In each case, the phagemid clone was grown from a single colony overnight at 37° C. in a culture volume of 5 ml. The phage particles were prepared as described above.

## IGF-1 D12A displayed on phage (from UniProt P69168 267-424) (ligand)
Human IGFBP-1
  IC50: 4.3 nM
  relative IC50 (mut/G1S-A70V): 0.5

## IGF-1 L14A displayed on phage (from UniProt P69168 267-424) (ligand)
Human IGFBP-1
  IC50: 36.7 nM
  relative IC50 (mut/G1S-A70V): 4.5

## IGF-1 V17A displayed on phage (from UniProt P69168 267-424) (ligand)
[1]
  IC50: 3.67 nM
  relative IC50 (mut/G1S-A70V): 4.9
Human IGFBP-1
  IC50: 42.9 nM
  relative IC50 (mut/G1S-A70V): 5.2

## IGF-1 Q15A displayed on phage (from UniProt P69168 267-424) (ligand)
[1]
  relative IC50 (mut/G1S-A70V): 1.7

## IGF-1 G22A displayed on phage (from UniProt P69168 267-424) (ligand)
[1]
  IC50: 2.07 nM
  relative IC50 (mut/G1S-A70V): 2.8

## IGF-1 P28A displayed on phage (from UniProt P69168 267-424) (ligand)
[1]
  IC50: 1.41 nM
  relative IC50 (mut/G1S-A70V): 1.9

## IGF-1 D20A displayed on phage (from UniProt P69168 267-424) (ligand)
[1]
  IC50: 1.11 nM
  relative IC50 (mut/G1S-A70V): 1.5

## IGF-1 Y24A displayed on phage (from UniProt P69168 267-424) (ligand)
[1]
  IC50: 2.53 nM
  relative IC50 (mut/G1S-A70V): 3.4

## IGF-1 L10A displayed on phage (from UniProt P69168 267-424) (ligand)
[1]
  IC50: 3.55 nM
  relative IC50 (mut/G1S-A70V): 4.7
Human IGFBP-1
  IC50: 311 nM
  relative IC50 (mut/G1S-A70V): 37.9

## IGF-1 F23A displayed on phage (from UniProt P69168 267-424) (ligand)
[1]
  IC50: 2.18 nM
  relative IC50 (mut/G1S-A70V): 2.9

## IGF-1 F25A displayed on phage (from UniProt P69168 267-424) (ligand)
[1]
  IC50: 3.69 nM
  relative IC50 (mut/G1S-A70V): 4.9
Human IGFBP-1
  IC50: 181 nM
  relative IC50 (mut/G1S-A70V): 22.1

B1: IGF-1 D45A displayed on phage (ligand, not shown: large carriers; small tags and cut ends)
chain: SPETLCGAELVDALQFVCGDRGFYFNKPTGYGSSSRRAPQTGIVAECCFRSCDLRRLEMYCAPLKPAKSV
notes: G1S-A70V background
[1]
  IC50: 0.69 nM
Human IGFBP-1
  IC50: 4.7 nM

B2: IGF-1 D53A displayed on phage (ligand, not shown: large carriers; small tags and cut ends)
chain: B1 chain with A45D, D53A
modifications: ends and bridges not checked; also: displayed on M13 phage, fused to g3p fragment (249-406) via amber-codon residue
notes: G1S-A70V background
[1]
  IC50: 1.05 nM
Human IGFBP-1
  IC50: 15.3 nM

B3: IGF-1 E46A displayed on phage (ligand, not shown: large carriers; small tags and cut ends)
chain: B1 chain with A45D, E46A
notes: G1S-A70V background
[1]
  IC50: 0.94 nM
Human IGFBP-1
  IC50: 7.9 nM

B4: IGF-1 E58A displayed on phage (ligand, not shown: large carriers; small tags and cut ends)
chain: B1 chain with A45D, E58A
modifications: ends and bridges not checked; also: displayed on M13 phage, fused to g3p fragment (249-406) via amber-codon residue
notes: G1S-A70V background
[1]
  IC50: 1.03 nM
Human IGFBP-1
  IC50: 11.9 nM

B5: IGF-1 F49A displayed on phage (ligand, not shown: large carriers; small tags and cut ends)
chain: B1 chain with A45D, F49A
notes: G1S-A70V background; also called IGF-F49A phage
[1]
  IC50: 2.72 nM
Human IGFBP-1
  relative IC50 (mut/G1S-A70V): > 100

B6: IGF-1 G42A displayed on phage (ligand, not shown: large carriers; small tags and cut ends)
chain: B1 chain with G42A, A45D
notes: G1S-A70V background
[1]
  IC50: 0.53 nM
Human IGFBP-1
  IC50: 15.7 nM

B7: IGF-1 I43A displayed on phage (ligand, not shown: large carriers; small tags and cut ends)
chain: B1 chain with I43A, A45D
notes: G1S-A70V background
[1]
  IC50: 1.17 nM
Human IGFBP-1
  IC50: 31.3 nM

B8: IGF-1 L54A displayed on phage (ligand, not shown: large carriers; small tags and cut ends)
chain: B1 chain with A45D, L54A
modifications: ends and bridges not checked; also: displayed on M13 phage, fused to g3p fragment (249-406) via amber-codon residue
notes: G1S-A70V background
[1]
  IC50: 1.83 nM
Human IGFBP-1
  IC50: 23.1 nM

B9: IGF-1 L57A displayed on phage (ligand, not shown: large carriers; small tags and cut ends)
chain: B1 chain with A45D, L57A
modifications: not fully specified; ends and bridges not checked
notes: G1S-A70V background
[1]
  IC50: 1.78 nM
Human IGFBP-1
  IC50: 21.8 nM

B10: IGF-1 M59A displayed on phage (ligand, not shown: large carriers; small tags and cut ends)
chain: B1 chain with A45D, M59A
modifications: not fully specified; ends and bridges not checked
notes: G1S-A70V background
[1]
  IC50: 0.74 nM
Human IGFBP-1
  IC50: 13.1 nM

B11: IGF-1 R50A displayed on phage (ligand, not shown: large carriers; small tags and cut ends)
chain: B1 chain with A45D, R50A
notes: G1S-A70V background
[1]
  IC50: 0.64 nM
Human IGFBP-1
  IC50: 16.2 nM

B12: IGF-1 R55A displayed on phage (ligand, not shown: large carriers; small tags and cut ends)
chain: B1 chain with A45D, R55A
modifications: not fully specified; ends and bridges not checked
notes: G1S-A70V background
[1]
  IC50: 0.66 nM
Human IGFBP-1
  IC50: 9 nM

B13: IGF-1 R56A displayed on phage (ligand, not shown: large carriers; small tags and cut ends)
chain: B1 chain with A45D, R56A
modifications: not fully specified; ends and bridges not checked
notes: G1S-A70V background
[1]
  IC50: 1 nM
Human IGFBP-1
  IC50: 13.1 nM

B14: IGF-1 S51A displayed on phage (ligand, not shown: large carriers; small tags and cut ends)
chain: B1 chain with A45D, S51A
modifications: not fully specified; ends and bridges not checked
notes: G1S-A70V background
[1]
  IC50: 0.65 nM
Human IGFBP-1
  IC50: 13.4 nM

B15: IGF-1 T41A displayed on phage (ligand, not shown: large carriers; small tags and cut ends)
chain: B1 chain with T41A, A45D
notes: G1S-A70V background
[1]
  IC50: 0.43 nM
Human IGFBP-1
  IC50: 13.7 nM

B16: IGF-1 V44A displayed on phage (ligand, not shown: large carriers; small tags and cut ends)
chain: B1 chain with V44A, A45D
notes: G1S-A70V background
[1]
  IC50: 1.03 nM
Human IGFBP-1
  IC50: 18.8 nM

B17: 23A3.1 (peptide)
peptide displayed on M13 phage as a fusion to g8p: EPWLCQYYEAAMLYLCWEEG
modifications: not fully specified (bridges); cysteine pairing not given here; also: displayed on phage coat protein g8
notes: whole phage particle in the assay; also called peptide-phage clone 23A3.1 (g8 display)
[2]
  binding result: binds

B18: 23A3.4 (peptide)
peptide displayed on M13 phage as a fusion to g8p: EPWLCQYYEAAMLYLCWEEG
modifications: not fully specified (bridges); cysteine pairing not given here; also: displayed on phage coat protein g8
notes: whole phage particle in the assay; also called peptide-phage clone 23A3.4 (g8 display)
[2]
  binding result: binds

B19: 23B3.1 (peptide)
peptide displayed on M13 phage as a fusion to g8p: TGVDCQCGPVHCVCMDWA
notes: whole phage particle in the assay; also called peptide-phage clone 23B3.1 (g8 display)
[2]
  binding result: binds

B20: 23B3.2 (peptide)
peptide displayed on M13 phage as a fusion to g8p: EVLLCSDGPQLYLCELYA
modifications: not fully specified (bridges); cysteine pairing not given here; also: displayed on phage coat protein g8
notes: whole phage particle in the assay; also called peptide-phage clone 23B3.2 (g8 display)
[2]
  binding result: binds

B21: 23B3.4 (peptide)
peptide displayed on M13 phage as a fusion to g8p: SGVECVWGPQWGFCVEEY
modifications: not fully specified (bridges); cysteine pairing not given here; also: displayed on phage coat protein g8
notes: whole phage particle in the assay; also called peptide-phage clone 23B3.4 (g8 display)
[2]
  binding result: binds

B22: 23B3.5 (peptide)
peptide displayed on M13 phage as a fusion to g8p: DKEVCYLGPETWLCFWWP
modifications: not fully specified (bridges); cysteine pairing not given here; also: displayed on phage coat protein g8
notes: whole phage particle in the assay; also called peptide-phage clone 23B3.5 (g8 display)
[2]
  binding result: binds

B23: Ala(1-3)-IGF-1 displayed on phage (ligand, bacteriophage M13)
chain: AAATLCGAELVDALQFVCGDRGFYFNKPTGYGSSSRRAPQTGIVDECCFRSCDLRRLEMYCAPLKPAKSVSGGGSGSGDFDYEKMANANKGAMTENADENALQSDAKGKLDSVATDYGAAIDGFIGDVSGLANGNGATGDFAGSNSQMAQVGDGDNSPLMNNFRQYLPSLPQSVECRPFVFSAGKPYEFSIDCDKINLFRGVFAFLLYVATFMYVFSTFANILRNKES
notes: range 249-406
[1]
  IC50: 1.12 nM
Human IGFBP-1
  IC50: 90.4 nM

B24: IGF-1 P2A displayed on phage (ligand, bacteriophage M13)
chain: B23 chain with A1S, A3E
notes: range 249-406; G1S-A70V background
[1]
  IC50: 0.81 nM
Human IGFBP-1
  IC50: 11 nM

Reference: US20090011988A1 (Genentech, published 2009)
